Test results published in patent publication US7211420B1, “Process for oxidizing terpenes” (ISIS Innovation Limited, priority 1998, dated 2007).

Tests used:
Type in all cases: biochemical
[1] = Oxidation of valencene by P450cam mutants, product proportions by GC; details: substrate Valencene
Procedure: (§1) For simple screening the substrate can be added to culture and the incubation continued. However, due to impurities from the culture media the cells were generally washed twice with 0.5 vol. of buffer P, (KH2PO4 6.4 g, K2HPO4.3H2O 25.8 g, H2O to 4 liters, pH 7.4) and resuspended in 0.25 vol. oxygen saturated buffer P containing 24 mM glucose. Substrate was added to 1 mM and the incubation continued at 30° C. The reaction was allowed to run for 24 hours with periodic additions of substrate and glucose.
(§2) The reaction was analysed by extracting 1 ml of the incubation mixture with 250 μl of ethylacetate. After centrifuging in a microcentrifuge at 13,000 g for 2 minutes, 2 μl of the organic extract was injected onto a 0.25 mm×30 m DB-1 gas chromatography column in a Fisons GC 8000 series gas chromatograph. The samples were carried through the column using helium carrier gas and the compounds present were detected using a flame ionisation detector.

[2] = Oxidation of α-pinene by P450cam mutants, product proportions by GC; details: substrate α-Pinene
Procedure: as §1, §2

[3] = Oxidation of L-limonene by P450cam mutants, product proportions by GC; details: substrate L-Limonene
Procedure: as §1, §2

[4] = single oxygen insertion products only, 30 m DB-1 GC column

B1: Wild-type: Wild-type P450cam haem monooxygenase from Pseudomonas putida, sequence in Table 7 (protein, UniProt P00183 2-415, looked up)
Camphor 5-monooxygenase: TTETIQSNANLAPLPPHVPEHLVFDFDMYNPSNLSAGVQEAWAVLQESNVPDLVWTRCNGGHWIATRGQLIREAYEDYRHFSSECPFIPREAGEAYDFIPTSMDPPEQRQFRALANQVVGMPVVDKLENRIQELACSLIESLRPQGQCNFTEDYAEPFPIRIFMLLAGLPEEDIPHLKYLTDQMTRPDGSMTFAEAKEALYDYLIPIIEQRRQKPGTDAISIVANGQVNGRPITSDEAKRMCGLLLVGGLDTVVNFLSFSMEFLAKSPEHRQELIERPERIPAACEELLRRFSLVADGRILTSDYEFHGVQLKKGDQILLPQMLSGLDERENACPMHVDFSRQKVSHTTFGHGSHLCLGQHLARREIIVTLKEWLTRIPDFSIAPGAQIQHKSGIVSGVQALPLVWDPATTKAV
[1]
  Comments: Many small peaks
[2]
  Approximate proportion of product Pinene oxide: 10%
  Approximate proportion of product Verbenol: 30%
  Approximate proportion of product Verbenone: 10%
  Remaining other products (Comments): Remaining 50% other products
[3]
  Comments: Very small quantities
[3]; [4]
  Approximate proportion of Product at 6.10–6.20 min: 30%
  Approximate proportion of product Isopiperitenol (6.60–6.70 min): 70%
